Measurements as given in the supplement of paper PMC9170038.

Tested on: MS2 coat protein
Assay: apparent KD of MS2 coat protein; designed switch direction (-1 OFF switch, 1 ON switch): -1; higher = weaker reporter binding
Procedure, shortened: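 SNAP-549-labelled MS2 coat protein was titrated, doubling from 0.7 or 1.5 nM to 3 µM, over designed RNA switches transcribed on Illumina chips by stalled E. coli RNA polymerase. Runs were done without input, with 200 uM small-molecule ligand, or with an oligonucleotide input. Apparent KD is the per-design median over clusters of curve-fitted normalised fluorescence.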

[1] = input ligand: microRNA oligo, concentration not stated
[2] = Eterna round: R95, input ligand: microRNA oligo, concentration not stated
[3] = Eterna round: R95, input ligand: FMN 200 uM
[4] = Eterna round: R95, input ligand: none

Row | Sequence | apparent KD of MS2 coat protein (input ligand: FMN 200 uM) | apparent KD of MS2 coat protein (input ligand: none) | apparent KD of MS2 coat protein [2] | other results
1 | GCGGACUUGAUCGUGAGAUCAGAGACAUGAGGAUCACCCAUGUAGGAUAUCGAUUCGUUUCGAAUCGAGAAGGGCGUGGUCCGC [JL denovo 15] (Eterna round: R96, puzzle: Exclusion NG 3) | 83.9 nM | 70.2 nM |  | apparent KD of MS2 coat protein [1]: 52.2 nM
2 | GCGUGACAUGAGGAUCACCCAUGUGAGGAUAUCUGGAUAAUCUUUAUUUUAGAUAUCCAGAGAAGGCACAUGCU [Ex1-3: 3Z] (puzzle: Exclusion 1) |  |  | 170 nM | 
3 | GCGUUUUGGUGAGGAUAUCGGCCCUAAACCGGGCAACAUGAGGAUCACCCAUGUACGUGAUCCUGCGAGAAGGCACCGAUUAUA [Digeerle] (Eterna round: R96, puzzle: Exclusion NG 2) | 122 nM | 123 nM |  | apparent KD of MS2 coat protein [1]: 104 nM
4 | GCUAGAGCAGGAUAUCUAAAUCCUCACAUGAGGAUCACCCAUGUAGUCGAAAGACUAAGAAGAGAAGGGCUCUAGC [Omei Ex5 E19] (Eterna round: R97, puzzle: Exclusion 5) | 543 nM | 1290 nM |  | 
5 | GCUAGUCAUGUCAGGAUAUGCUGUUCCUUGGAACAGCAGAAGGGACAUGAGGAUCACCCAUGUGCCUAACUAGC [Mat - Exclusion 4 - JL Mod - D12] (Eterna round: R97, puzzle: Brourd's mod of Exclusion 4) | 558 nM | 43.8 nM |  | 
6 | GCUCGCGGGCAAGGAUAUCCUACGCUGUUCUGGCUCGUGUCUGUUACAUGAGGAUCACCCAUGUGGGAGAAGGUGCACCAGGGC [Design 47] (Eterna round: R96, puzzle: Exclusion NG 2) | 24.9 nM | 22.6 nM |  | apparent KD of MS2 coat protein [1]: 17.4 nM
7 | GCUGCGCGAGGAUAUGCGGUUCGCGCGGUGGCCGCUGGCGGACAUGAGGAUCACCCAUGUAGAAGGCGUGCGGG [Apr-15 SS2-60] (puzzle: Exclusion 2) |  |  | 11.7 nM | 
8 | GCUGCGCGAGGAUAUGCGGUUUGCGCUGUGGCCCGUGGCGUACAUGAGGAUCACCCAUGUAGAAGGCGUGCGGG [Apr-15 SS2-56] (puzzle: Exclusion 2) |  |  | 10.4 nM | 
9 | GCUGGACGAGGAUAUACAUGAGGAUCACCCAUGUGAUCAGCAGUCCUCGGACUGCAAUGUAGAAGGUGUCCAGC [E3/1-B2] (Eterna round: R97, puzzle: Exclusion 3) | 302 nM | 2320 nM |  | 
10 | GCUGGUCAAGGAUAUACAUUCGUGCUUCGGCACGUAAGAUCACAUGAGGAUCACCCAUGUAGAAGGUGACCAGC [E2/5-C1] (Eterna round: R97, puzzle: Exclusion 2) | 700 nM | 112 nM |  | 
11 | GCUGGUCGAGGAUAUACAUAACGUGCUUCGGCACGAGAUCUACAUGAGGAUCACCCAUGUAGAAGGCGACCAGC [E2/10-A1] (Eterna round: R97, puzzle: Exclusion 2) | 57.8 nM | 18 nM |  | 
12 | GCUUGGCGAGGAUAUACAUGAGGAUCACCCAUGUGAGAGAAAGAAGUGAGGAAGAAAAGUAGAAGGCGCUGAGG [Mat - Exclusion 3 - Mod of Salish D60] (puzzle: Exclusion 3) |  |  | 50.5 nM | apparent KD of MS2 coat protein [3]: 165 nM; apparent KD of MS2 coat protein [4]: 75.4 nM
13 | GCUUGUAGAGGAUAUACAAGGGCCUUAGCGGAAAACUCCGCACAUGAGGAUCACCCAUGUAGAAGGCUACCACC [Isrianqu] (puzzle: Exclusion 2) |  |  | 15.1 nM | 
14 | GCUUUUCUUUUCCUUUCUUACAUGAGGAUCACCCAUGUUUCUUGUCGCGCUCGCGUUGCUCGUCUGUCUGUCUGUUG [salish99_TOv1_r3_079] (puzzle: Sensor v3, turn-off variant 1) |  |  | 28.9 nM | apparent KD of MS2 coat protein [3]: 43.1 nM; apparent KD of MS2 coat protein [4]: 54.7 nM
15 | GGAAAACAUGAGGAUCACCCAUGUAAGGAUAUGCAAAAGGAUAUAGAAGGAAGAAAAAGCAGAAGGUACAAAGG [salish99-ex1_r3_099] (puzzle: Exclusion 1) |  |  | 44.8 nM | apparent KD of MS2 coat protein [3]: 72.1 nM; apparent KD of MS2 coat protein [4]: 57.9 nM
16 | GGAAAGGUAGGAUAUACGAAGAAAAAGGGUAGAAUAAUAACACAUGAGGAUCACCCAUGUAGAAGGACCAAAUG [Mat - Exclusion 2 - Mod of my Tesla design - D7] (puzzle: Exclusion 2) |  |  | 37.8 nM | apparent KD of MS2 coat protein [3]: 71.1 nM; apparent KD of MS2 coat protein [4]: 29 nM
17 | GGAACGCGAGGAUAUACAAGGCCGGAAACGGAAAUAGCCUCACAUGAGGAUCACCCAUGUAGAAGGCGCGGAGA [AK-MS2ROC-r4-exclusion2-26] (Eterna round: R97, puzzle: Exclusion 2) | 175 nM | 22.1 nM |  | 
18 | GGAAUACAUGAGGAUCACCCAUGUAAGGAUAUGCUGAAUAACACGGAAUUAACGUGCAGCAGAAGGUACAAAUG [Mat - Mod of my Eli Mod D44] (puzzle: Exclusion 1) |  |  | 112 nM | apparent KD of MS2 coat protein [3]: 105 nM; apparent KD of MS2 coat protein [4]: 93.2 nM

Row | Sequence | apparent KD of MS2 coat protein (input ligand: FMN 200 uM) | apparent KD of MS2 coat protein (input ligand: none) | apparent KD of MS2 coat protein [2] | other results
19 | GGAAUGUAAGGAUAUCCGAAAGGCGAGCGAAAGCGAGCAAAGGAGAAGGUACAUGAGGAUCACCCAUGUAAGGG [AK-MS2ROC-r4-exclusion4-11.3] (Eterna round: R97, puzzle: Exclusion 4) | 163 nM | 513 nM |  | 
20 | GGACAUAAAGUCAGGAUAUUAAGGCGAACAAGCGAUGAGAAGGGACAUGAGGAUCACCCAUGUGAUUCUCAUCA [Isedzaor] (Eterna round: R97, puzzle: Brourd's mod of Exclusion 4) | 20.5 nM | 14 nM |  | 
21 | GGACCCAAAGGAUAUACUUGAGGAUCACCCAAGUAUGUCGCUUGGGCACGGUAAAGGAGUAGAAGGUUGGGAAA [Esri] (Eterna round: R97, puzzle: Exclusion 3) | 17.6 nM | 14.4 nM |  | 
22 | GGACCGUGAGGAUAUAGAGGUCGCGUCAUAGGGCGUGGUUACUAGAAGGCACAUGAGGAUCACCCAUGUUCAUC [Eternabot (L1) Solution 7] (Eterna round: R97, puzzle: Exclusion 4) | 50.4 nM | 19.7 nM |  | 
23 | GGAGAGAGGCAGGAUAUGGGAGGGAGGACCGGACCAGAAGGGUUGACAUGAGGAUCACCCAUGUAGAGAUCCUC [AK-MS2ROC-r4-exclusion6-6.8] (Eterna round: R97, puzzle: Exclusion 6) | 563 nM | 1140 nM |  | 
24 | GGAGGAAGAGAGGAUAUGCGCUCAAGGAGAAAAGCAGAAGGUUCAACAUGAGGAUCACCCAUGUAUGAUCCUCA [AK-MS2ROC-r4-exclusion6-4] (Eterna round: R97, puzzle: Exclusion 6) | 342 nM | 203 nM |  | 
25 | GGAUCGAAUGUGAGGAUAUGCAGGUCCUUGGAUCUGCAGAAGGCACAUGAGGAUCACCCAUGUGACCUAGAUCC [Mat - Exclusion 4 - Eli Mod - D44] (Eterna round: R97, puzzle: Brourd's mod of Exclusion 4) | 268 nM | 30.5 nM |  | 
26 | GGAUCGAGUGUGAGGAUAUACCACUGGAUACAGUGGUAGAAGGCACAUGAGGAUCACCCAUGUCUCUACGAUCC [Fiskers BMX 4 - 44] (puzzle: Brourd's mod of Exclusion 4) |  |  | 16.3 nM | 
27 | GGAUCGUAUGUCAGGAUAUACCACUGGAUACAGUGGUAGAAGGGACAUGAGGAUCACCCAUGUGUUAUCGAUCC [Fiskers BMX 4 - 55] (puzzle: Brourd's mod of Exclusion 4) |  |  | 41.5 nM | 
28 | GGAUCUUGGGUCAGGAUAUGCUGGUAUUUUUGCCAGCAGAAGGGACAUGAGGAUCACCCAUGUUCUUGGUUUUG [Magic-15] (puzzle: Brourd's mod of Exclusion 4) |  |  | 11 nM | 
29 | GGCAAUAUGUAGGAUAUCGUAUUGGAAACAAUACGAGAAGGGCAAACAUGAGGAUCACCCAUGUUCCUUAAGCC [Mat - Exclusion 6 - Eli Mod - D68] (puzzle: Exclusion 6) |  |  | 17.6 nM | apparent KD of MS2 coat protein [3]: 18.6 nM; apparent KD of MS2 coat protein [4]: 16.6 nM
30 | GGCAUCGGAGGAUAUACUUAUGGUGAUACCAGAAGCUUUCUACUUGAGGAUCACCCAAGUAGAAGGCCGAUGCC [jl-ex2.4.86 ViennaUCT mod] (Eterna round: R97, puzzle: Exclusion 2) | 17.5 nM | 26.2 nM |  | 
31 | GGCGCCUCAGGAUAUCAGUCUGGAUCAGAAUAGAUCCUGACUGAGAAGGGACAUGAGGAUCACCCAUGUUCGCC [Eli 4x 4.29] (Eterna round: R97, puzzle: Exclusion 4) | 20.8 nM | 18.9 nM |  | 
32 | GGCGGACAUGAGGAUCACCCAUGUUAGGAUAUGGUGCGAUCGUCGAUAGACGAUAGCACCAGAAGGGACACGCC [Mat - Exclusion 1 - Eli Mod - D2] (Eterna round: R97, puzzle: Exclusion 1) | 16.6 nM | 16.9 nM |  | 
33 | GGGAAGGGAGGAUAUGAGGGAGAGAACAUGAGGAUCACCCAUGUGAGACCUCAGGAUCGAUCAGAAGGCCCGACCC [AK-MS2ROC-r4-exclusion5-13.1] (Eterna round: R97, puzzle: Exclusion 5) | 824 nM | 92.2 nM |  | 
34 | GGGAGCAGACGGAGAUCCAACAUGAGGAUCACCCAUGUCUCCCAAGCUUUUUGCUUGUCUUAUCCUCCUCUGUUUCC [Design #9] (Eterna round: R97, puzzle: Sensor, turn-off variant 1) | 17.2 nM | 17.6 nM |  | 
35 | GGGAGGGAUACAGGAUAUAUGACAUGAGGAUACAUGAGACAUACAAACAUGAGGAUCACCCAUGUAUAGAAGGGUAAGGGAGGG [Another guess] (Eterna round: R96, puzzle: Exclusion NG 2) |  |  |  | apparent KD of MS2 coat protein [1]: 126 nM
